Test [1] deals with T1, Human TROP2 Protein, His Tag (Acro Biosystems) (human, UniProt P09758 27-274).
T1 construct: not shown: His tag
T1 sequence (looked up): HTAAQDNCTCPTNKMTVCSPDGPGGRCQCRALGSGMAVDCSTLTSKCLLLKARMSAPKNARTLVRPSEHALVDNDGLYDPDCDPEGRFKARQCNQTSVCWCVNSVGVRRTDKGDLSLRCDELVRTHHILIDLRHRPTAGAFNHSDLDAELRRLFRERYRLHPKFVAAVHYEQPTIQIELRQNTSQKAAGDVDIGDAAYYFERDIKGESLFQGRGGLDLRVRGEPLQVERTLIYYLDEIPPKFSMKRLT
In words: BLI (Octet). (In BLI a coated tip is dipped into the sample, and binding shifts an interference pattern.)

The target in test [2] is T2, TROP2 on TROP2-positive NCI-H1975 cells (human, UniProt P09758 27-323).
T2 construct: whole, on cells
T2 sequence (looked up): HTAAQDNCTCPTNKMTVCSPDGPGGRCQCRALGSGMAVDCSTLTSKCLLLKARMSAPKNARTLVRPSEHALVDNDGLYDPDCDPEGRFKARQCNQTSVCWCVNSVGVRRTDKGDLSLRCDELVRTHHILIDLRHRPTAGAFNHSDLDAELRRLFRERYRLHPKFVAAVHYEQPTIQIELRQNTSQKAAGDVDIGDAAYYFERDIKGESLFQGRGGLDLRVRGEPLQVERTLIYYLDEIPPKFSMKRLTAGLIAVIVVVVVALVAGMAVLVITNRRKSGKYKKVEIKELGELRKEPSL
Briefly: binding to TROP2-positive NCI-H1975 cells at pH 6.7.

Test [3] addresses T2, TROP2 on TROP2-positive NCI-H1975 cells. Briefly: binding to TROP2-positive NCI-H1975 cells at pH 5.4.
Test [4] has the same target. Briefly: binding to TROP2-positive NCI-H1975 cells at pH 7.4.
Test [5] concerns the target T3, Human TROP2 Protein, His Tag (Acro Biosystems) (human, UniProt P09758 27-274).
T3 construct: not shown: His tag
T3 sequence (looked up): T1 sequence (looked up)
In words: Octet (BLI); antigen and pH not given.

Test [6] concerns the target T4, Human TROP2 Protein, His Tag (Acro Biosystems) (human, UniProt P09758 27-274).
T4 construct: also called TACSTD2; not shown: His tag
T4 sequence (looked up): T1 sequence (looked up)
Briefly: BLI (Octet) [2/2].

Changes are numbered by the printed parent chain.

B1: MYT12390 (antibody, V domains shown)
VH: QVQLVQSGAEVKKPGASVKVSCKASGYTFTTAGMQWVRQAPGQGLEWMGWINTHSGVPKYAEDFKGRVTISADTSTSTAYLQLSSLKSEDTAVYYCARSGFGSSYWYFDVWGQGTLVTVSS
VL: DIQMTQSPSSLSASVGDRVTITCKASQHVSTAVAWYQQKPGKAPKLLIYSASYRYTGVPSRFSGSGSGTDFTLTISSLQPEDFAVYYCHQHYITPLTFGQGTKLEIK
notes: datopotamab VL 28, 89 substituted
Turning to B1, the binding result in test [1] is “no binding (tested: 50 nM)”.

B2: MYT11566 (antibody, human IgG1, V domains shown)
VH: QVQLQQSGSELKKPGASVKVSCKASGYTFTNYGMNWVKQAPGQGLKWMGWINTYTGEPTYTDDFKGRFAFSLDTSVSTAYLQISSLKADDTAVYFCARGGFGSSYWYFDVWGQGSLVTVSS
VL: B1 VL with M4L, T20S, H28D, T31I, S60D, H89Q, Q100A, L104V
notes: IgG; also called Sacituzumab WT; Sacituzumab
A word on the IC50: it is the concentration that inhibits the measured activity by half. In general, Kd refers to the equilibrium constant for the complex coming apart. Consider B2, for which the half-inhibitory concentration (IC50) in test [2] was determined as 0.94 nM; in test [3], 1.15 nM; in test [4], 1.05 nM. This molecule also registered an equilibrium dissociation constant (Kd) in test [5] of 0.6 nM. The “Octet response at 33.33 nM (Y-Axis) nm” value in test [5] was 0.157 nm.

B3: MYT11635 (antibody, human IgG1, V domains shown)
VH: B1 VH
VL: B1 VL with H28D, H89Q
notes: IgG; also called Datopotamab WT; Datopotamab
Consider B3, for which the values for the concentration for half-maximal inhibition (IC50) in test [2], in test [3] and in test [4] were 0.54 nM, 0.48 nM and 0.51 nM, respectively. The molecule also yielded an equilibrium dissociation constant (Kd) in test [5] of 1.25 nM. Moreover, in test [5], the “Octet response at 33.33 nM (Y-Axis) nm” value is 0.13 nm.

B4: MYT13430 (antibody, V domains shown)
VH: B2 VH with Y32H
VL: DIQLTQSPSSLSASVGDRVSITCKASQDVSIAVAWYQQKPGKAPKLLIYSHSHRYTGVPDRFSGSGSGTDFTLTISSLQPEDFAVYYCQQHYHTPLTFGAGTKVEIK
notes: Sacituzumab HC-LC pairing variant
As for B4, in test [6], the binding result was “binds”.

B5: MYT13411 (antibody, V domains shown)
VH: B2 VH with F64H
VL: B4 VL with S52H, H53Y, H93I
notes: as for B4
On to B5, for which the binding result in test [6] is “binds”.

B6: MYT11670 (antibody, human IgG1, V domains shown)
VH: B1 VH with S104H
VL: B1 VL with H28D, H89Q
notes: IgG
B6: the IC50 was found to be 1.42 nM in test [2], 1.83 nM in test [3] and 1.61 nM in test [4]. The dissociation constant Kd in test [5] was found to be 10.9 nM. Besides, the “Octet response at 33.33 nM (Y-Axis) nm” value in test [5] amounted to 0.0891 nm.

B7: MYT13410 (antibody, V domains shown)
VH: B2 VH with D63H
VL: B4 VL with S52H, H53Y, H93I
notes: as for B4
On to B7, for which the binding result in test [6] was “binds”.

B8: MYT12394 (antibody, V domains shown)
VH: B1 VH
VL: B1 VL with H28D, A51H, H89Q, Y92H
notes: datopotamab VL 51, 92 substituted
Take B8: the binding result in test [1] is given as “no binding (tested: 50 nM)”.

B9: MYT12402 (antibody, V domains shown)
VH: B1 VH
VL: B1 VL with S52H, H89Q, Y92H
notes: datopotamab VL 28, 52, 92 substituted
For B9, in test [1], the binding result is “no binding (tested: 50 nM)”.

B10: MYT12401 (antibody, V domains shown)
VH: B1 VH
VL: B1 VL with S52H
notes: datopotamab VL 28, 52, 89 substituted
As for B10, in test [1], the binding result is reported as “no binding (tested: 50 nM)”.

B11: MYT13369 (antibody, human IgG1, V domains shown)
VH: B2 VH with D62H
VL: B4 VL with S30H, V33H, H51A, H53Y, H93I
notes: IgG; also called Sacituzumab HC-LC pairing variant
In the case of B11, the IC50 in test [2] was 1.02 nM; in test [3], around 25 nM; in test [4], 0.63 nM. Besides, in test [5], the dissociation constant Kd was 0.14 nM. Also, the “Octet response at 33.33 nM (Y-Axis) nm” value in test [5] stood at 0.167 nm.

B12: MYT12400 (antibody, V domains shown)
VH: B1 VH
VL: B1 VL with A51H, H89Q, Y92H
notes: datopotamab VL 28, 51, 92 substituted
For the molecule B12, in test [1], the binding result was “no binding (tested: 50 nM)”.

B13: MYT11699 (antibody, V domains shown)
VH: B1 VH
VL: B1 VL with H28D, H89Q, I93H
notes: IgG; also called Datopotamab LC variant
For the molecule B13, the IC50 in test [2] came to 1.16 nM; in test [3] it was 4.58 nM; in test [4], 0.73 nM. For the same molecule, the affinity in test [5], expressed as Kd, was 3.52 nM. In test [5], the “Octet response at 33.33 nM (Y-Axis) nm” value is 0.0968 nm.

B14: MYT13409 (antibody, V domains shown)
VH: B2 VH with D62H
VL: B4 VL with S52H, H53Y, H93I
notes: as for B4
Take B14: the binding result in test [6] was “binds”.

B15: MYT12403 (antibody, V domains shown)
VH: B1 VH
VL: B1 VL with Y92H
notes: datopotamab VL 28, 89, 92 substituted
As for B15, the binding result in test [1] was “no binding (tested: 50 nM)”.

B16: MYT13436 (antibody, V domains shown)
VH: B2 VH with K65H
VL: B4 VL
notes: as for B4
As to B16, the binding result in test [6] is “binds”.

B17: MYT11614 (antibody, human IgG1, V domains shown)
VH: B2 VH
VL: B4 VL with S30H, H51A, H53Y, H93I
notes: IgG; also called Sacituzumab LC variant
Take B17: the 50% inhibitory concentration (IC50) in test [2] was 1.06 nM; in test [3], around 5 nM; in test [4], 0.82 nM. For the same molecule, in test [5], the Kd is 0.75 nM. Moreover, the “Octet response at 33.33 nM (Y-Axis) nm” value in test [5] was 0.149 nm.

B18: MYT12396 (antibody, V domains shown)
VH: B1 VH
VL: B1 VL with H28D, S52H, H89Q, Y92H
notes: datopotamab VL 52, 92 substituted
Consider B18, for which the binding result in test [1] is “no binding (tested: 50 nM)”.

B19: MYT13412 (antibody, V domains shown)
VH: B2 VH with K65H
VL: B4 VL with S52H, H53Y, H93I
notes: as for B4
For the molecule B19, the binding result in test [6] is “binds”.

B20: MYT12397 (antibody, V domains shown)
VH: B1 VH
VL: B1 VL with H28D, Y92H
notes: datopotamab VL 89, 92 substituted
With B20, the binding result in test [1] is reported as “no binding (tested: 50 nM)”.

B21: MYT13370 (antibody, human IgG1, V domains shown)
VH: B2 VH with D63H
VL: B4 VL with S30H, V33H, H51A, H53Y, H93I
notes: as for B11
As for B21, the IC50 in test [2] was 1.86 nM; in test [3], around 45 nM; in test [4], 0.84 nM. The same molecule displayed a dissociation constant (Kd) in test [5] of 1.36 nM. For the same molecule, the “Octet response at 33.33 nM (Y-Axis) nm” value in test [5] is 0.155 nm.

B22: MYT13423 (antibody, V domains shown)
VH: B2 VH with G33H
VL: B4 VL with S30H, H53Y
notes: as for B4
Consider B22, for which, in test [6], the binding result is on record as “binds”.

B23: MYT13414 (antibody, V domains shown)
VH: B2 VH with Y32H
VL: B4 VL with S30H, H53Y, Q89H, H93I
notes: as for B4
For the molecule B23, in test [6], the binding result is reported as “binds”.

B24: MYT12391 (antibody, V domains shown)
VH: B1 VH
VL: B1 VL with H89Q, Y92H
notes: datopotamab VL 28, 92 substituted
For the molecule B24, in test [1], the binding result was “no binding (tested: 50 nM)”.

B25: MYT11704 (antibody, human IgG1, V domains shown)
VH: QVQLQESGPGLVKPSETLSLTCTVSGGSISSYGVHWIRQPPGKGLEWIGVIWTSGVTDYNSALMGRVTISVDTSKNQFSLKLSSVTAADTAVYYCARDGDYDRYTMDYWGQGTLVTVSS
VL: DIVMTQSPDSLAVSLGERATINCRASKSVSTSGYSYMHWYQQKPGQPPKLLIYLASNLESGVPDRFSGSGSGTDFTLTISSLQAEDVAVYYCQHSRELPYTFGQGTKLEIK
notes: IgG; also called hu7E6SVG WT; hu7E6SVG
As to B25, the figures for the IC50 in test [2], in test [3] and in test [4] were 0.97 nM, 1.29 nM and 0.98 nM, respectively. The same molecule yielded a Kd in test [5] of 4.4 nM. Also, the “Octet response at 33.33 nM (Y-Axis) nm” value in test [5] stood at 0.118 nm.

B26: MYT12459 (antibody, human IgG1, V domains shown)
VH: B25 VH
VL: B25 VL with E59H, Q93H, E97H
notes: IgG; also called hu7E6SVG LCC his scan variant
On to B26, for which the results for the IC50 in test [2], in test [3] and in test [4] were 1.67 nM, around 30 nM and 1.42 nM, respectively. For the same molecule, the affinity in test [5], expressed as Kd, was 6.02 nM. The “Octet response at 33.33 nM (Y-Axis) nm” value in test [5] worked out at 0.0906 nm.

The record behind these values is patent US20260274985A1 (MYTHIC THERAPEUTICS, published 2026).
